Data from paper PMC3433037.

Legend:
Test in all cases: SEC
[1] = molecular target: Δ6-ClpP (Escherichia coli)
[2] = molecular target: Δ10-ClpP (Escherichia coli)
[3] = molecular target: Δ4-ClpP (Escherichia coli)
[4] = molecular target: Δ14-ClpP (Escherichia coli)
[5] = molecular target: Δ17-ClpP (Escherichia coli)

Δ6-ClpP (domain or fragment)
stoichiometry N [1]: 14

Δ10-ClpP (domain or fragment)
stoichiometry N [2]: 14

Δ4-ClpP (domain or fragment)
stoichiometry N [3]: 14

Δ14-ClpP (domain or fragment)
stoichiometry N [4]: 14

Δ17-ClpP (domain or fragment)
stoichiometry N [5]: 14
